Experiment: soluble on expression in E. coli; label from the status in PepcDB or PDB records

Sequence	soluble on expression in E. coli
MGSDKIHHHHHHMYLLVDVGNTHSVFSITEDGKTFRRWRLSTGVFQTEDELFSHLHPLLGDAMREIKGIGVASVVPTQNTVIERFSQKYFHISPIWVKAKNGCVKWNVKNPSEVGADRVANVVAFVKEYGKNGIIIDMGTATTVDLVVNGSYEGGAILPGFFMMVHSLFRGTAKLPLVEVKPADFVVGKDTEENIRLGVVNGSVYALEGIIGRIKEVYGDLPVVLTGGQSKIVKDMIKHEIFDEDLTIKGVYHFCFGD	not soluble
MGSDKIHHHHHHMYNVGGVVLKRYFVAPGRINVIGEHTDYNEGFVLPVAIDKYVLLSVEKTSGSKISLSSMGREPVSFDESKIQKTGDWSDYLKGVLWVLKDELGTEFGGMSIEINSNLPEGAGLSSSAAVEVAMIVALNSSFNLKLDETELYDYARKAENEFVGVKCGVMDQFAAVMGKKDKAIFLDTLEMRYEYVPLELGDYTFLVFDSKVHHSLSKGGYNTRREEARKALEILGKSSYRDVSMVDLFPNRSRLGELYYRRALHVVSENMRVLESVKIMSNSNFENLGRLLIQSHESLALDYEVSCDETDFIVNTLREMKGVSGARMIGAGFGGSVLSLCEKEEEKKIVEVIKTRYKERFGIDLDSYEVRTSDGAREVDSSFSL	not soluble
MGSDKIHHHHHHMYQPGIVFLFSGHKIGYINERTFRYDTNEYLLLTVPLPFECETFATPEVPLAGMRLNVDILQLQELLMDIGEDPLFQPAVASSGINSAVLSEDILCAAERLLDVMERPLDARILGKQIVREILYYVLTGPCGGALLALVSRQTHFSLISRVLKHIESQYTENLSVDRLAAEANMSVSAFHHNFKAVTSTSPLQYLKNYRLHKARMLMIHDGMKASAAAMRVGYESPSQFSREFKRYFGLTPGEDAARIRTMQGM	not soluble
MGSDKIHHHHHHMYSHPTAIQTMSDGTIKQVNPFSGTEVWTVPGRGHRPLSTSQGNITPITPSDHSNTCAFCSDRYLDTPPEKARIVRDDDGWTILRGVLPDRLHDSVPAFRRVSNLFEIVSYDYWRNNYGFSMDLETTDWMQSYISTEKGREHVLATVRTKLQAAGIQDMPDDATLLPQGEAFFGGGHDLIIGQRHFVPDATQSDQLASAGTLSPDEHFAFIFFTVDALREAYQRNRYAPYVAVFQNWLKPAGASFDHLHKQLVAIDERGVHGETEIAKLRNYPNMYNEWAVDYAGQRNLIIAENDHAVCFAGFGHRYPTLEVFSRSATPEPWLQTNEEIKAMSDLIHACHAAAGPHVPCNEEWHHKPIDLDIAMPWRVMIKWRVSTLAGFEGSTKVYLNTLSPWDVRDRVVPRLYELRDSGAIDGSIRIATECSVRRNSLLYNKNLNM	not soluble
MGSDKIHHHHHHMYSYNQLRRVTFNQLGRIAYNSRSSPRRRAVFERLAGARPVVLTQERERLAVLDHANDIILEQEINGIDTVTFNIPFSDEKNQFIQNEHLIQIIDDYYIIRKITHSRGSQGVPITEVYAEALWYDLQFAEPMDISEWEGRAPAIVMADILRGTDWSVGRVELMNVRNVSVEPGVTNRLAALSQLPEVYGGELHFNSEAMTVDFLAPVGRQSGAAIVYEKNIHSIEAIYDTEDLITRIYPYGKENLSIEDINDGVPYLDIRDDPSYEFTDKLRVRILKDDRFTNPFHLREMAEEALKVLSQPRTSYHIKAADLSEMAGMSHEQFFLGDEVRVYDKELGIDIATRIMAWQYNVAEPWNTEIMLESKQPTLSDLLTGIQEGTGFLQSEDTVDSSDMLELSVFNHILNSRADDGFHYWTNSGWEIDAVNGYSGNASFKATGTTGRKVLSQTVYPAHRDHYAISFRSATKEFQTNDGGRVGLEIIVRYDDGTEDEPTFISLT	not soluble
MGSDKIHHHHHHMYVAVKGGEQAILNTHKLISETRRGDPEIAELTLPQISEQLGLAVDRVMAEGSVYDRQLAALALKQAQGDAMEAIFLLRAYRTTLPRIAVSEPIDTSRMAIRRRISATFKDLPGGQVLGPTYDYTHRLLDFALTAEGLERVRAVPAAEPLDQSVPRVVDLLDDEGVIQEENDDDQEEVFDLTRQPKSFPAGRDQRLQNLARADEGFLLGLAYSTTRGYGFNHPFVGELRLGEVTVEIVPEELGFPIVVAEVTVTECQMINSFRGSAEQPPQFTRGYGLTFGHNEGKAMSMSLVDRAMRARELGEDVRYPAQDEEFVLSHTDNVEANGLVTHYKLPHYVDFQAELQLVRQLRAEYEAARAAAQTREAAE	not soluble
MGSDKIHHHHHHQPPFPAPPAVRDIDCLEQDLMVYARALPQPDAPLLTLQDQERQTGFFLRRFFAAWDMRAPSMPRHTMFADLRATLDGKGWGANLLPVPPARTESLWQRCRTGEYPSLAVPAIITGNTSLRMAPDDEPFFRDPARAGEGYPFDYFQYSALWAGMPVFVVHASSDGGWLLCETPLAAGWVRARDVAYVDSGFMNAYRTGMYAAVVADDTPLRTAEGRWVLTAHTGAVFPVDKADAAGLVLRVPVRGADGGAGIRLVHVSYGAAARMPLPLTPVAVAMVGNGMMRQPYGWGGLLENRDCSAAMHDLFAPFGIWLPRNSSQQARAGALVSLEEMTPPQREAHILEQGVPFFSFIWMRGHIGLYLGPDRQDCAAGKPLMFHNVWGIRTGGGRAPEGRLVIGRAVVTTLHAGEEYPQVRKNWMLDRIRGLTLLPPQVP	not soluble
MGSDKIHHHHHHSCGTNGSKTTSTDITEKKVIVQVPQFDADSAYKYIQAQVDFGPRTPNSKGHVACGDYLAAKLAEHGAKVISQNAELPAYDGTLLKARNIIGSFKPESKKRIALFAHWDTRPWADNDPNEKNHHTPILGANDGASGVGVLLEIARQINQQQPELGIDIIFLDAEDYGAPQFYTGEHREDQWCLGAQYWARTPHVDGYNARFGILLDMVGGKDATFFKEVYSEKYAKGINKKVWKKANDAGYGRYFINEVGGQITDDHLFINRLAGIPTIDIIPNDENCELSSFGPTWHTVNDNMDAIDRSTLKAVGQTVLEVIYNEK	not soluble
MGSDKIHHHHHHTEGWFMPFDNWLYQLQNADPVEISSSGFEIAVIDYSKDGSESGEYSPEEIKIMVDAGVVPVAYVNIGQAEDYRFYWKESWYTNTPEWLGEEDPAWPGNYFVKYWYNEWKEIVFSYLDRVIDQGFKGIYLDRIDSFEYWAQEGVISRRSAARKMINFVLEIAEYVRERKPDMLIIPQNGENILDFDDGQLASTVSGWAVENLFYLKTIPLEENETKSRLEYLIRLNRKGKFILSVDYVDDGSDSFENISRILDYYEKAKRNGCIPYAARSDLELDEMNVIEGIQPPEALKDYESRTYR	soluble
MGSDKIHHHHHHTGIWQWSVPVHNFSTHPKNPESRAYLWIPGQCEQVKAILVAQHNMEEISILEDEAFRQRMAELDVAQIWVCPSFNHGFDFTDGAWETLDGLLADLAEESGYKELSTAPLIAIGHSAAASWPYYLAAYKPERTLACISVSGQWPYHRDRWLCPDIWGERNINKIPCLETMGEYESAHTWSNEGLKERKEHPLLPLSMLACPAEGHFAYTPEKAQYIALYIKKAMHYGHVDPTKEGWLMERWKKNEKPSCIPAPVNQFKGDPAQAFWFFDREMIEATLAYQSRYYDMKPQLVSVSQNGKTVSQQNTHLQVHPAFIPQEDGITFQLTPVFLDTVPGESPRLSNWTDLPVGASIGHAGKAPVLQMITGPVVLVDSVTFRIQWNRGTLWTDKKSDIVFSITHPGDEEYKPAVQQAQMIIPVKNTEGQQQYIKFATLPDIKRGTKYVSLSAVSSCGLPVDFYVESGPAYVDGNRLILTAIPPKTTYPVKVTVIAWQYGKNSDPKIKTAEPVKQTFYIR	not soluble
MGSDKIHHHHHHVARLVASVDKYIYTVNGDTILSHQFISNNAQFGNGIEVSQDNHFPWSGEIHYEINNPNQLAFKLGIRIPSWSRNKFGLKINGKKIDLASEDGFIYINVNDESLTVDLSLDMNTKFMRSSNKVSSNYGKIAVQRGPIVYAAEETDNKAPLWNYKVETDKEPKYHYNKDLLEGVGTITVKSIAEEISPEDGPLYSTIDEATANYETDLKLIPYYAWANREEGQMQVWLNK	not soluble
MGSDKIHHHHHHVDWNWNGDIRFRYDSSKTELASSPDKPADDRYRLRARFGVSPTINDELSAGLRLATGDGKNPTSTNQTLGKDFADKAIWLDEAYINYHPKALEGKVNVLLGKRDIAKTFNVVKDLVWDSDVTIEGATLQYGKDVSGKQKSGPSLIAGYYTLENYATASDPCIFAVQGAYMGTVSGADFNLGASYFDYVHMKNVAWWNSPNGPANDGKDFRILEVFGTLGGKLGGSLPATLYAQYAHNTALNSDNNAVLAGLKLGSDKKPGGWTLDGGYFYIEKYAVTPLTDGDRPMSSKYSTDIKGLKIGATYQLVQNMTLGATYFHVNPVDSSLTGSTSDHKNLVQADVAVNF	not soluble
MGSDKIHHHHHHVFDALVIGSGPAGLAIAAELAQRGLKVQGLSPVDPFHPWENTYGIWGPELDSLGLEHLFGHRWSNCVSYFGEAPVQHQYNYGLFDRAQLQQHWLRQCEQGGLQWQLGKAAAIAHDSHHSCVTTAAGQELQARLVVDTTGHQAAFIQRPHSDAIAYQAAYGIIGQFSQPPIEPHQFVLMDYRSDHLSPEERQLPPTFLYAMDLGNDVYFVEETSLAACPAIPYDRLKQRLYQRLATRGVTVQVIQHEEYCLFPMNLPLPDLTQSVVGFGGAASMVHPASGYMVGALLRRAPDLANAIAAGLNASSSLTTAELATQAWRGLWPTEKIRKHYIYQFGLEKLMRFSEAQLNHHFQTFFGLPKEQWYGFLTNTLSLPELIQAMLRLFAQAPNDVRWGLMEQQGRELQLFWQAIAAR	not soluble
MGSDKIHHHHHHVNGLPLVELSGDAYTQGWQHGRALREAIAANLRIYMTRFERELRIPPDEVWRRALRYAAVIAEQNQDYAAGMRGIAEGAGVDLAAIAALNVRYELFYQFFREYERGTGKPDGCTAFALLPSETDNGHLLVGENWDWIQGVRGAILRTIAPDGLRTLAFTEAGIFGGKIGLNAAGLALLINGLSSTGDDWASLRRPFHVRCYEILQARSLTEAQAVITSEERAGSANFLLAQVPDRVVNIEAAPAALAISGCTNGCLVHANHFTDPAALGIVERQIERYPHSYWRQERLRSLLASRPQSLAQVQAALRDHEQFPYSVCFHIDPADPPDEYYETVASVIMDVTAGVLYATDGPPCEHAYVRYELEVAR	not soluble
MGSDKIHHHHHHVNSDNNPNQISDIKPILKVYIENSGSMDGYMCDGSQLKDAIFDYVSDLSTCVDTTQLYYINNRVIPYHADLEQYIKTMNPITFQKAGGNRSNSDLSKMLSTVLDAMTDSTVSIFVSDCILDLPVSDAQRFLSTCQISIKNTINKGRKNIPLLGVEILKMKSDFNGKYFYQNGGSEVLTNVKRPYYIWIFGNSNVLAKLNTEVLFKGLEKYGYDNIISYCPKTSIPYDITNRALISKTINPIKGDYNATIRADFCTTLQSEDVLLNLDNYSFNNQNLIIENIKPIIATEREYSHFINITIPKGVNIAEDYLILKAPNMPSWVLESNDESGENVKGNLDKTTGIKYLIGGVSDAYKKDNVLTTLKFTVKRK	not soluble
MGSDKIHHHHHHVPKNKDSKNNSIPRRRFGRTEIQIPVLSLGGMRFQQSWKDLDPKEINNQQQEILQKTISYAAQKGMHHIETARHYGTSERQIGWAFDQIDDPKRILQTKVPPNNDPSIFEQELELSMSRLGSKKIDLLAIHGINLPEHLDMTIRPNGCLQIVRRWQKDGLIGHVGFSTHANVDLIIKTIETGFFDYVNLHWYFIRQENEKALQAADANDLGVFIISPTDKGGHLHTPSLKLLDLCSPLHPIEFNDLFCLRDKRIHTLSVGASSPEDLDIHLSAISKMDTMHGVINTIEKRLINASYKSLGESWLTTWNIGLPRWDQTPGEINIPTLLWLNNLLEAWDMESFVKDRYGLLGRGGHWFPGANADCLDCEVSEDDLKKVLINSPWSSEIPSVLRKLKDRLGGERRDRLWGI	not soluble

Reference: the DeepSol protein solubility set
